Kd data for five substances are collected here from publication PMC4098866.

The assay has as its target laminin from mouse EHS (Engelbreth-Holm-Swarm) sarcoma (mouse). The assay can be described thus: ELISA. On the technique in general: ELISA stands for enzyme-linked immunosorbent assay.

The term Kd denotes the concentration at which binding is half-saturated. A low value points to a tighter complex. “RPSA-(2–220) (from UniProt P14206 2-220) (domain or fragment)”: the Kd was 691 nM. The result for “RPSA-(225–295) (from UniProt P14206 225-295) (domain or fragment)” reads 344 nM; that for “RPSA-(2–295) (from UniProt P14206 2-295) (natural protein)”, 666 nM.

“RPSA-(2–209) (from UniProt P14206 2-209) (domain or fragment)” came in with a Kd of 273 nM. With “RPSA-(210–295) (from UniProt P14206 210-295) (domain or fragment)” the figure was 374 nM.
